In vitro activity relative to Val^8-GLP-1(7-37)OH (EC50 potency, CRE-BLAM β-lactamase reporter in HEK-293 cells expressing human GLP-1 receptor) (fold relative to Val^8-GLP-1(7-37)OH) data for twelve substances are collected here from patent US20040053819A1.

Chain of human GLP-1 receptor (human) (P43220 24-463): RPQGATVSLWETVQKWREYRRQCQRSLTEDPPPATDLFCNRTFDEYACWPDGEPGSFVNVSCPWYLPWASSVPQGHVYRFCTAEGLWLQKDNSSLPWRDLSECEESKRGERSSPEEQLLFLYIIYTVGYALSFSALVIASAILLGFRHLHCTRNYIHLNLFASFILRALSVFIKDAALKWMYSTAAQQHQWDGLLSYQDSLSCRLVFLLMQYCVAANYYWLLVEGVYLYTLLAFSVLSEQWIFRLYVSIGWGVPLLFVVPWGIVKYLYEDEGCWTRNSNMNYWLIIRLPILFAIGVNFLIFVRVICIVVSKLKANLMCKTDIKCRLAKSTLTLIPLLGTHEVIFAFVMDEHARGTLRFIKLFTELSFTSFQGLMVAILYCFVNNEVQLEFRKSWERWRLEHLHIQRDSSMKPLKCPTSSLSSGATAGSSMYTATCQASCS

The assay concerns the target human GLP-1 receptor (human) (UniProt P43220). The assay can be described thus: cell-based or functional assay.
The substance Val^8-Trp^12-GLP-1(7-37)OH (peptide) yielded an In vitro activity relative to Val^8-GLP-1(7-37)OH (EC50 potency, CRE-BLAM β-lactamase reporter in HEK-293 cells expressing human GLP-1 receptor) (fold relative to Val^8-GLP-1(7-37)OH) of 1.07.
Val^8-Tyr^12-GLP-1(7-37)OH (peptide) registered an In vitro activity relative to Val^8-GLP-1(7-37)OH (EC50 potency, CRE-BLAM β-lactamase reporter in HEK-293 cells expressing human GLP-1 receptor) (fold relative to Val^8-GLP-1(7-37)OH) of 1.73.
Next, Val^8-GLP-1(7-37)OH (peptide): 1; Val^8-GLP-1(7-36)NH2 (peptide): 1.06; “Arg^34Lys^26-(N-ε-(γ-Glu(N-α-hexadecanoyl)))-GLP-1(7-37) (peptide)”: 1.92.
Next, Val^8-Lys^22-GLP-1(7-37)OH (peptide): 1.22; Val^8-Glu^22-GLP-1(7-37)OH (peptide): 3.33; Gly^8-GLP-1(7-37)OH (peptide): 1.67.
In turn, Val^8-Ala^27-GLP-1(7-37)OH (peptide) yielded an In vitro activity relative to Val^8-GLP-1(7-37)OH (EC50 potency, CRE-BLAM β-lactamase reporter in HEK-293 cells expressing human GLP-1 receptor) (fold relative to Val^8-GLP-1(7-37)OH) of 1.
Next, Val^8-Arg^26-GLP-1(7-37)OH (peptide): 1.47.
Next, GLP-1(7-37)OH (peptide): 2.06; Val^8-Leu^16-GLP-1(7-37)OH (peptide): 1.13.
